Assay results reported in patent US11466066B2, “Variants of human BMP7 protein” (ELI LILLY AND COMPANY, priority 2017, dated 2022).
Where a chain is given by its changes, count along the chain named. Names and notes keep the numbering of the source. Marks after values point to notes of the source that are not given here.

What was measured:
[1] = test system: female CB17SC-M SCID mice; assay: Ectopic bone formation model; format: in vivo; details: 3 μg/100 μl subcutaneous; CT scan on Day 13
Method: Ectopic bone formation (EBF) may be measured in female CB17SC-M SCID mice upon subcutaneous administration of certain human BMP7 protein variants of the present invention compared to wild type human mature BMP7.
Briefly described, the mice may be anesthetized with 3% isoflurane and are injected with 3 μg/100 μl of the human BMP7 protein variant, wild type human mature BMP7 protein or a vehicle control on the back left flank. The back right flank of each mouse may serve as a control (no injection). Vehicle (pH 4.5): 0.5% Sucrose, 2.5% Glycine, 5 mM L-Glutamic Acid, 5 mM NaCl, 0.01% polysorbate 80, and, 0.1% BSA.
EBF may be measured by a CT scan on Day 13 after injection of the human BMP7 protein variant or wild type human mature BMP7 protein.

[2] = test system: monosodium iodoacetate (MIA)-induced rat model of OA pain; assay: MIA rat model of osteoarthritic pain; format: in vivo
Method: The effect of human mature BMP7 protein variant F9 (SEQ ID NO: 8) may be evaluated in the monosodium iodoacetate (MIA)-induced rat model of OA pain (Bove, et. al., Osteoarthritis and Cartilage, 2003, 11: 821-830).
Briefly stated, male Lewis rats aged 7-8 weeks at the time of MIA injection may be used for this study. For induction of osteoarthritis, the rats may be anesthesized with isoflurane and given a single intra-articular injection of 0.3 mg/50 μl MIA through the infrapatellar ligament of the right knee. The left contralateral control knee may be injected with 50 μl sterile saline. The animals are treated with wild type human mature BMP7 protein at a dose of 1.0 μg/knee and human mature BMP7 protein variant F9 (SEQ ID NO: 8) at 0.175 μg and 0.7 μg/knee via intra-articular injections on day 9 and 14 post-MIA.
Pain measurements may be made by incapacitance testing on days 17, 24, 31, 38, 45, 52, 58, and 66 post-MIA injection using an incapacitance tester (Columbus Instruments International, Columbus, Ohio). Changes in hind paw weight distribution between the osteoarthritic (right) and contralateral control (left) limb may be utilized as an index of joint discomfort (measure of pain) in the osteoarthritic knee. Results may be presented as the difference in weight bearing between the contralateral control (left) and the osteoarthritic (right).

[3] = test system: rat primary articular chondrocytes (RPACs); assay: Chondrogenesis assay (pellet culture); format: cell-based; details: 2 weeks in culture
Method: The effect of wild type human mature BMP7 and variants thereof may be evaluated for differentiation of chondrocytes in an in vitro model utilizing rat primary articular chondrocytes (RPACs). To obtain RPACs, articular cartilage may be isolated from 2-3 day old rats. The cartilage may be digested with 0.4% collagenase for 2 hours and then the resultant cells may be washed with phosphate buffered saline and subsequently cultured in media containing DMEM, 10% FBS and 1% penicillin/streptomycin in humidified air with 5% CO2 at 37° C.
To assess the chondrogenic differentiation, a pellet culture system may be used. Approximately 2×10^5 cells from passage 2-3 may be placed in 1.5 ml tubes and centrifuged at 500 g for 10 minutes. The pellets may be cultured at 37° C. with 5% CO2 in 500 μl of medium. […] The media may be replaced twice per week for 2 weeks. After 2 weeks in culture, the pellets may be harvested and macroscopic analysis was performed by stereomicroscopic procedures. The images may be analyzed and the pellet sizes may be calculated in a 2-dimensional image.

[4] = test system: rat surgical fracture model; assay: Bone healing model (cortical defect); format: in vivo; details: day 35; for BMC: mean ± SEM; for % Increase From Vehicle Control: BMC
Text: The effect of wild type human mature BMP7 and variants thereof may be evaluated on bone regeneration and repair or bone healing in a rat surgical fracture model. Animals may be ovariectomized at 6 months of age and allowed to lose bone for two months before fracture surgery. Cortical defect surgery may be performed essentially as previously described (Komatsu, et al., Endocrinology, 150:1570-1579, 2009). Briefly, the procedure involves incising the skin over the lateral femoral aspect and blunt dissection of the quadriceps to expose the distal femoral diaphysis. Cortical defects may be then generated through the anterior and posterior cortexes using a Dremel tool (Robert Bosch Tool Corp, Gerlingen, Germany) equipped with a 2 mm orthopedic drill bit (Zimmer Inc, Warsaw, Ind.). The muscles may be subsequently repositioned, and the skin may be closed with tissue adhesive. Groups of animals may be treated with various amounts of wild type human mature BMP7 or variants thereof prepared in sodium citrate buffer pH 3.0 and adsorbed to Helistat type-1 collagen sponges in a volume of 50 μl. The treatments may be administered locally at the site of defect during surgery and treated for 35 days. A control group may receive the vehicle containing the same constituents in collagen sponge without the therapeutic proteins. In vivo fracture repair and bone mineral content (BMC) may be evaluated by quantitative computed tomography (QCT) using a GE Locus Ultra CT scanner (GE Healthcare, London, Ontario, Canada) as described previously (Komatsu et al., 2008).

[5] = 16.5 μg on collagen sponge at defect site

B1: Human mature BMP7 protein variant F9 (SEQ ID NO: 8): homodimer wherein each monomeric subunit has SEQ ID NO: 8 (Y65G/I86L/F93V/N110G/Y128W), disulfide linked (protein)
chain: STGSKQRSQNRSKTPKNQEALRMANVAENSSSDQRQACKKHELYVSFRDLGWQDWIIAPEGYAAGYCEGECAFPLNSYMNATNHALVQTLVHVINPETVPKPCCAPTQLGAISVLYFDDSSNVILKKWRNMVVRACGCH
modifications: homodimer, disulfide linked
Ectopic Bone Formation Volume [1]: 7 mm^3
Difference in hind paw weight bearing ([2]; 0.175 μg/knee intra-articular day 9 and 14, Day 17 post-MIA): 23.29 ± 1.31 g
Difference in hind paw weight bearing ([2]; 0.175 μg/knee, Day 24): 24.32 ± 2.97 g
Difference in hind paw weight bearing ([2]; 0.175 μg/knee, Day 31): 21.87 ± 2.14 g
Difference in hind paw weight bearing ([2]; 0.175 μg/knee, Day 38): 20.82 ± 1.03^b g
Difference in hind paw weight bearing ([2]; 0.175 μg/knee, Day 45): 19.44 ± 0.80 g
Difference in hind paw weight bearing ([2]; 0.175 μg/knee, Day 52): 19.35 ± 0.77 ^b g
Difference in hind paw weight bearing ([2]; 0.175 μg/knee, Day 58): 17.42 ± 3.16^b g
Difference in hind paw weight bearing ([2]; 0.175 μg/knee, Day 66): 15.00 ± 1.84^b g
Difference in hind paw weight bearing ([2]; 0.7 μg/knee intra-articular day 9 and 14, Day 17 post-MIA): 36.75 ± 6.45^b g
Difference in hind paw weight bearing ([2]; 0.7 μg/knee, Day 24): 29.78 ± 8.39 g
Difference in hind paw weight bearing ([2]; 0.7 μg/knee, Day 31): 26.62 ± 6.07 g
Difference in hind paw weight bearing ([2]; 0.7 μg/knee, Day 38): 23.63 ± 0.90 g
Difference in hind paw weight bearing ([2]; 0.7 μg/knee, Day 45): 21.75 ± 4.34 g
Difference in hind paw weight bearing ([2]; 0.7 μg/knee, Day 52): 20.51 ± 3.03 g
Difference in hind paw weight bearing ([2]; 0.7 μg/knee, Day 58): 16.72 ± 0.79^b g
Difference in hind paw weight bearing ([2]; 0.7 μg/knee, Day 66): 13.06 ± 1.78^b g
Pellet Size ([3]; Treatment 0.014 nM): 0.67 ± 0.16 mm^2
Pellet Size ([3]; Treatment 0.14 nM): 1.56 ± 0.46^a mm^2
Pellet Size ([3]; Treatment 1.4 nM): 2.61 ± 0.18^a mm^2
BMC ([4]; 2.0 μg on collagen sponge at defect site): 16.19 ± 1.09 mg
BMC [4, 5]: 18.13 ± 2.29^a mg
cortical area ([4]; 16.5 μg): significant increase
% Increase From Vehicle Control ([4]; 2.0 μg): 114%
% Increase From Vehicle Control ([4]; 16.5 μg): 128%

B2: Wild type human mature BMP7 (SEQ ID NO: 2): dimer of two glycosylated, 139 amino acid disulfide-linked proteins of about 35 kDa, SEQ ID NO: 2 (protein, listed as Homo sapiens)
chain: B1 chain with G65Y, L86I, V93F, G110N, W128Y
modifications: disulfide-linked glycosylated homodimer
Ectopic Bone Formation Volume [1]: 78 mm^3
Difference in hind paw weight bearing ([2]; 1.0 μg/knee intra-articular day 9 and 14, Day 17 post-MIA): 27.52 ± 2.81 g
Difference in hind paw weight bearing ([2]; 1.0 μg/knee, Day 24): 26.05 ± 2.81 g
Difference in hind paw weight bearing ([2]; 1.0 μg/knee, Day 31): 23.46 ± 1.23 g
Difference in hind paw weight bearing ([2]; 1.0 μg/knee, Day 38): 22.68 ± 0.61 g
Difference in hind paw weight bearing ([2]; 1.0 μg/knee, Day 45): 20.95 ± 0.87 g
Difference in hind paw weight bearing ([2]; 1.0 μg/knee, Day 52): 20.37 ± 0.71 g
Difference in hind paw weight bearing ([2]; 1.0 μg/knee, Day 58): 17.66 ± 1.79^b g
Difference in hind paw weight bearing ([2]; 1.0 μg/knee, Day 66): 17.59 ± 2.68^b g
Pellet Size ([3]; Treatment 0.02 nM): 0.64 ± 0.15 mm^2
Pellet Size ([3]; Treatment 0.2 nM): 0.70 ± 0.03 mm^2
Pellet Size ([3]; Treatment 2 nM): 0.83 ± 0.13 mm^2
BMC [4, 5]: 16.25 ± 1.60 mg
% Increase From Vehicle Control ([4]; 16.5 μg): 115%
